Data from article doi:10.1101/2022.09.29.510028 (bioRxiv, 2022).
Values joined by “and” are separate entries in the source; they are usually repeats but may differ in a detail not shown here. Identical values can stand only once. Like-named read-outs stand apart in the source and are kept apart here.

B1: NPM1_(120) (N-terminal domain, residues 1-120) (domain or fragment)
chain: MEDSMDMDMSPLRPQNYLFGCELKADKDYHFKVDNDENEHQLSLRTVSLGAGAKDELHIVEAEAMNYEGSPIKVTLATLKMSVQPTVSLGGFEITPPVVLRLKCGSGPVHISGQHLVAVE
B2: NPM1_(188) (NTD and the acidic regions of the IDR, residues 1-188) (domain or fragment)
chain: MEDSMDMDMSPLRPQNYLFGCELKADKDYHFKVDNDENEHQLSLRTVSLGAGAKDELHIVEAEAMNYEGSPIKVTLATLKMSVQPTVSLGGFEITPPVVLRLKCGSGPVHISGQHLVAVEEDAESEDEEEEDVKLLSISGKRSAPGGGSKVPQKKVKLAADEDDDDDDEEDDDEDDDDDDFDDEEAEE
B3: NPM1_(ΔIDR) (NTD and CTD linked without the IDR) (other)
chain: MEDSMDMDMSPLRPQNYLFGCELKADKDYHFKVDNDENEHQLSLRTVSLGAGAKDELHIVEAEAMNYEGSPIKVTLATLKMSVQPTVSLGGFEITPPVVLRLKCGSGPVHISGQHLVAVEPSSVEDIKAKMQASIEKGGSLPKVEAKFINYVKNCFRMTDQEAIQDLWQWRKSL

Experiments:
Assay in all cases: native MS
[1] = target: the molecule itself
[2] = target: Nucleophosmin 1, full-length (FL NPM1) (human)
[3] = target: B1
[4] = target: the molecule itself; remark: listed apart in the source

Binder: B1
- stoichiometry N [1]: ≥ 25 subunits

Binder: RRRREGKTDYYARKRLV [rpL5_(21-37) (residues 21-37 of ribosomal protein L5)]
- binding result [2]: binds
- binding result [3]: binds

Binder: B2
- stoichiometry N [4]: 5 and 10

Binder: B3
- stoichiometry N [4]: 10 and 5
